How the values were obtained:
[1] = GTPase activity (hydrolysis of 32P-labelled GTP, PEI cellulose TLC, bioimaging analyzer); format: biochemical; settings: immunoprecipitate on anti-HA antibody sepharose, one hour at 30° C., FIG. 5
[2] = GTP binding ability (UV cross-linking with [γ-35S] GTP, SDS-PAGE, autoradiography); settings: [γ-35S] GTP 1 μM, one hour at 30° C., protein expressed in E. coli DH5α
Method: As Mms 16 of the present invention contained many GTP binding proteins and homologous sequences, the GTP binding ability of Mms 16 was investigated as follows. 1 μl of [γ-^35S] GTP (1 μM; 1,250 Ci/mmol) and cell homogenate were mixed in 20 μl binding buffer (50 mM Tris-HCl, 5 mM MgCl2, 1 mM EDTA, 0.3% Tween 20), and kept still for one hour at 30° C. Then, the obtained reaction mixture was kept still on ice for 20 minutes, and ultraviolet bridging was performed between GTP and protein by using an ultraviolet lamp. Subsequently, ½ amount of 3× sample buffer was added to the reaction solution to denature the protein, and sepharose beads were precipitated by centrifugation, supernatant was loaded onto 15% (w/v) acrylamide gel. After SDS-PAGE, the gel was dried and wrapped in Saran Wrap, and detection was conducted by autoradiography.
As a result, in addition to the protein that binds to [γ-^35S] […] GTP. In case where [α-^32P] GTP is used, [α-^32P] GTP binding type of GTPase is not observed because GDP also dissociates from GTPase when phosphoric acid in position γ dissociates from GTP binding type GTPase by hydrolysis activity. However, in case where [γ-^35S] GTP is used, it is possible to show the presence of GTPase because S is binding to 5′ of phosphoric acid in position γ, and therefore, hydrolysis is not caused by GTPase.

Molecule: Mms 16-HA fusion protein: Mms 16 fused at C-terminal with hemagglutinin epitope tag (YPYDVPDYA), expressed in E. coli from pTrc 16HA
- GTPase activity [1]: [α-^32P] GTP was hydrolyzed

B1: Mms 16: 16 kDa protein specific to a magnetic particle membrane of Magnetospirillum sp. AMB-1, amino acid sequence Seq. ID No. 2 (protein, listed as Magnetospirillum sp.)
chain: MAAKQTEQFFDFDVAKYLGDFKVPGVDVETIVANQRKNIEALTQANKLAFEGLQNVVKRQVEILRQTMDEVAQVSKDFAEPGSPQGKAAKQAEFAKDAFERALXNARELAEMIAKANSEAFDLLNKXFTQSLDEAREVFTKAGKK
modifications: X: residue not identified in the source
notes: 16 kDa protein specific to a magnetic particle membrane of Magnetospirillum sp; ID No. 2
- GTP binding ability [2]: apparently bind to [γ-^35S] GTP
- GTPase activity [1]: has GTPase activity

— patent US20040048289A1, “Magnetic particle membrane-specific protein” (priority 2000, published 2004)
